The target of the data set is T1, MBP-SOA(1-331), myb+BTB (Anopheles gambiae, UniProt Q7Q6N8 1-331).
T1 sequence: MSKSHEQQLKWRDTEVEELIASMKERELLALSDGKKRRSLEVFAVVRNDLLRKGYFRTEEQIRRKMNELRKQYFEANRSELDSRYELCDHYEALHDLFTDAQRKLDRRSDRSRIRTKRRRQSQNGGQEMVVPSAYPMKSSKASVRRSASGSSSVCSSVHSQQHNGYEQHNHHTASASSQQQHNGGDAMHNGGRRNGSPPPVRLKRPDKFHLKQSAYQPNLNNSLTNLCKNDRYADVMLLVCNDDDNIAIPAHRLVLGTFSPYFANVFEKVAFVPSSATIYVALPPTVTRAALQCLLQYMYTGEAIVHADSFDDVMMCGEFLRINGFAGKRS
The data set can be described thus: fluorescence polarization; FP: 10 mM Na-HEPES pH 7.4, 150 mM NaCl, 1 mM TCEP, 0.1 g/l BSA, 5% glycerol, 0.05% Triton X-100, 5 nM DNA, 20 C; EMSA: 20 mM HEPES-KOH pH 7.5, 100 mM KCl, 0.05% NP-40, room temperature. The following applies: protein: recombinant; tags: N-terminal His6-MBP; label: Cy5 on one strand; blunt.

B1: CA10 dsDNA 20mer (dsDNA)
DNA 1: CACACACACACACACACACA
DNA 2: TGTGTGTGTGTGTGTGTGTG
For B1, the dissociation constant (Kd) is 40 nM.

Source of the values: PMC10620080, “The sex-specific factor SOA controls dosage compensation in Anopheles mosquitoes”.
